Data reported in paper PMC4830966, “Molecular basis of the STIL coiled coil oligomerization explains its requirement for de-novo formation of centrosomes in mammalian cells” (Scientific Reports, 2016).

Tests used:
[1] = target: the molecule itself; test: SEC; 35 μM WT STIL CCD peptide on Superdex30 analytical column, 25 mM sodium phosphate buffer pH 6.8 (IS = 40 mM)
[2] = target: the molecule itself; test: SEC; 250 µl of 100 μM peptide on Superdex30 analytical column, 25 mM sodium phosphate buffer pH 6.8 (IS = 40 mM); comparison of elution profiles
[3] = target: the molecule itself; test: SEC; 500 μM WT STIL CCD peptide on Superdex30 analytical column, 25 mM sodium phosphate buffer pH 6.8 (IS = 40 mM)

Row | Protein | stoichiometry N [1] | stoichiometry N [2] | stoichiometry N [3]
1 | LSPDAYRFLTEQDRQLRLLQAQIQRLLEAQSL (also called WT CCD; STIL coiled coil peptide; source: synthetic peptide) [WT STIL CCD peptide (STIL amino acids 718-749)] | ~2 | ~4 | 4
2 | LSPDAYRFLTEQDRQLRLEQAQIQRLLEAQSL (source: synthetic peptide) [STIL CCD L736E peptide] |  | ~2 | 
3 | ESPDAYRFLTEQDRQLRLLQAQIQRLLEAQSL (source: synthetic peptide) [STIL CCD L718E peptide] |  | ~2 | 
